The values that follow come from patent publication US20170334995A1 (Boehringer Ingelheim, published 2017).

The target of assay [1] is T1, human PD1 expressed on the surface of CHO cells (human, UniProt Q15116 25-288).
T1 construct: whole, on cells; also called PD1 expressing CHO cells
The assay is described as follows: blocking assay on cells: biotin-labelled human PD-L1 binding to PD1-expressing CHO cells, Europium-streptavidin fluorescence, % inhibition against antibody concentration [A]. On the procedure:
(§1) The mixture was incubated for 1 hour at 37 degrees celsius. […] Percentage inhibition values were calculated in Excel and curve fitting was done with GraphPad Prism. Data points of the curve are mean values of triplicate measurements.

Assay [2] concerns the target T1, human PD1 expressed on the surface of …. The assay is described as follows: blocking assay on cells: biotin-labelled human PD-L2 binding to PD1-expressing CHO cells, Europium-streptavidin fluorescence, % inhibition against antibody concentration [D]. On the procedure: as §1
A further assay has as its target T2, human PD1 ECD (human, UniProt Q15116 21-170).
T2 construct: range 21-170; also called recombinant monomeric human PD1; recombinant human PD1
The assay is described as follows: SPR (ProteOn XPR36), antibody captured on Protein A/G, PD1 ECD as analyte, 1:1 Langmuir fit. The protocol: Binding affinities to recombinant monomeric human PD1 were measured by SPR using a ProteOn XPR36 instrument. […] Human PD1 ECD was injected over the captured antibodies for 600 sec at a flowrate of 30 ul/min and a dissociation for 1200 sec.

Assay [3] has as its target T1, human PD1 expressed on the surface of …. Kind of assay: ligand blocking on PD1-expressing CHO cells, competitor biotin-PD-L2. The protocol: as §1
Assay [4] has the same target. The assay is described as follows: ligand blocking on PD1-expressing CHO cells, competitor biotin-PD-L1. The protocol:
as §1

Assay [5] has the same target. The assay is described as follows: blocking assay on cells: biotin-labelled human PD-L1 binding to PD1-expressing CHO cells, Europium-streptavidin fluorescence, % inhibition against antibody concentration [B]. The protocol:
as §1

The target is the same in assay [6]. The assay is described as follows: blocking assay on cells: biotin-labelled human PD-L2 binding to PD1-expressing CHO cells, Europium-streptavidin fluorescence, % inhibition against antibody concentration [E]. On the procedure: as §1
For the next assay, the target named is T3, human LAG3 (ECD) (human, UniProt P18627 23-450).
T3 construct: range 23-450; the screening reagent is called only 'human LAG3 (ECD)'; also called human LAG3 ECD protein
T3 sequence (looked up): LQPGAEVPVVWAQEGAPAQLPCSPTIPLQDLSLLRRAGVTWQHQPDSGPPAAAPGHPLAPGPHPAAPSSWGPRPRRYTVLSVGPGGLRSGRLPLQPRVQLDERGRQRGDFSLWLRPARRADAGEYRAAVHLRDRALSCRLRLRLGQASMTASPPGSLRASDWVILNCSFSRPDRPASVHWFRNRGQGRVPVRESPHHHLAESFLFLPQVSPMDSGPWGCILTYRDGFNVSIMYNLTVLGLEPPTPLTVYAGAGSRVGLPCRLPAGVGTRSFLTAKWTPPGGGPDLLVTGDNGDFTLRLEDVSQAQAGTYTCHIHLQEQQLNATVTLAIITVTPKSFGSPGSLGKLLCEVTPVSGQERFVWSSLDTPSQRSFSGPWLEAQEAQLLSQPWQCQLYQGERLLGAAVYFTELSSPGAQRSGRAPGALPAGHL
Kind of assay: hybridoma screening.

For assay [7], the target named is T4, Human LAG3 ECD-Fc (human, UniProt P18627 23-450).
T4 construct: extracellular domain; 23-450 is stated only for the immunogen; also called recombinant human LAG3 extracellular domain fused to human Fc; hLAG3-hlgFc; not shown: Fc
T4 sequence (looked up): T3 sequence (looked up)
Kind of assay: SPR, antibody captured on Protein A/G, LAG3 ECD-Fc as analyte, 1:1 Langmuir fit. For orientation: SPR reads the build-up and loss of mass on a sensor chip optically.

Assay [8] has as its target T4, Human LAG3 ECD-Fc. The assay is described as follows: blocking assay by FACS: LAG3 ECD-Fc pre-incubated with the antibody, then binding to MHC II on Raji cells detected with PE anti-human IgG, % inhibition against antibody concentration. Background: Flow cytometry measures light scatter and fluorescence of single cells or particles in a stream.

The term Kd denotes the equilibrium constant for the complex coming apart. Low values mean a tighter complex, high ones a looser complex. Usually IC90 stands for the concentration needed for an effect of 90%. Lower therefore signals an effect from little substance.

Positions count from the first letter of the chain named.

T2 sequence (Q15116 21-170 limits assumed, form in doubt): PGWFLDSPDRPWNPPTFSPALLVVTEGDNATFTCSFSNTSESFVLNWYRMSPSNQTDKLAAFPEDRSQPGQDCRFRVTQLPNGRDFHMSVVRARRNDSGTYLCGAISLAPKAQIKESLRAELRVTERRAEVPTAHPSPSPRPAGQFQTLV
T1 sequence (Q15116 25-288): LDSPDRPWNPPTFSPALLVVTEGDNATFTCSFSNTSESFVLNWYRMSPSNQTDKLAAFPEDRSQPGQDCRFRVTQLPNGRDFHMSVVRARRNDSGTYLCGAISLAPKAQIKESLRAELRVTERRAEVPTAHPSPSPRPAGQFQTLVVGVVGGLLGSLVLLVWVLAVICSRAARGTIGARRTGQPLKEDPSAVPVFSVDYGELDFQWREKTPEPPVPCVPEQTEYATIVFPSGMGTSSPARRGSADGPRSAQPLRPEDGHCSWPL

B1: PD1-1 (antibody, human IgG4 S228P, kappa, V domains shown)
VH: EVMLVESGGGLVQPGGSLRLSCTASGFTFSASAMSWVRQAPGKGLEWVAYISGGGGDTYYSSSVKGRFTISRDNAKNSLYLQMNSLRAEDTAVYYCARHSNVNYYAMDYWGQGTLVTVSS
VL: EIVLTQSPATLSLSPGERATMSCRASENIDTSGISFMNWYQQKPGQAPKLLIYVASNQGSGIPARFSGSGSGTDFTLTISRLEPEDFAVYYCQQSKEVPWTFGQGTKLEIKR
notes: Humanized derivative of murine 77E11; the HC is IgG4 (Pro), kappa light chain; also called anti-PD1 antibody PD1-1
Take B1: the “IC50 (read off the curve)” value was around 0.8 nM in assay [1] and around 1 nM in assay [2]. This molecule displayed a dissociation constant Kd in the assay with human PD1 ECD of 16.6 nM. Further, the IC90 in assay [3] was 2.09 nM; in [4], 2.12 nM.

B2: PD1-3 (antibody, human IgG4 S228P, kappa, V domains shown)
VH: B1 VH with A31K
VL: B1 VL with T31V
notes: Humanized derivative of murine 77E11; the HC is IgG4 (Pro), kappa light chain; also called anti-PD1-3; representative anti-PD1 antibody of the invention
Take B2: the “IC50 (read off the curve)” value in assay [5] is around 0.8 nM; in assay [6] it was around 1 nM. For the same molecule, the Kd with human PD1 ECD stood at 6 nM. Besides, the 90% effect concentration (IC90) is 1.95 nM in [3] and 1.68 nM in [4].

B3: PD1-2 (antibody, human IgG4 S228P, kappa, V domains shown)
VH: B1 VH with V102P
VL: B1 VL
notes: Humanized derivative of murine 77E11; the HC is IgG4 (Pro), kappa light chain; also called anti-PD1 antibody PD1-2
Regarding B3, the “IC50 (read off the curve)” value in assay [1] and in [2] was around 1 nM each time. The molecule also gave a Kd with human PD1 ECD of 61.8 nM. Moreover, the values for the IC90 in assay [3] and in assay [4] were 3.64 nM and 2.97 nM, respectively.

B4: 496G6 (antibody, V domains shown)
VH: QVTLKESGPGILQPSQTLSLTCSFSGFSLSTSDMGVGWIRQPSGKGLEWLAHIWWDDVKRYNPALKSRLTISKDTSSSQVFLMIASVDTADTATYFCARIEDYGVSYYFDYWGQGTTLTVSS
VL: DIVMTQSHKFMSTSVGDRVSFTCKASQDVNTAVAWYQQKPGQSPKLLIYSASYRYTGVPDRFTGSGSGTDFTFTISSVQAEDLALYYCQQHYSIPLTFGAGTKLELK
notes: Murine monoclonal antibody from a hybridoma; also called murine progenitor antibody 496G6; monoclonal antibody produced by 496G6
Consider B4, for which the binding result in the assay with human LAG3 (ECD) is given as “binds”.

B5: LAG3-4 (antibody, human IgG4 S228P, kappa, V domains shown)
VH: QVTLVESGGGVVQPGRSLRLSCAFSGFSLSTSDMGVGWIRQAPGKGLEWVAHIWWDDVKRYNPALKSRFTISRDNSKNTLYLQMNSLRAEDTATYFCARIEDYGVSYYFDYWGQGTTVTVSS
VL: DIVMTQSPSFLSASVGDRVTITCKASQDVSTAVAWYQQKPGKAPKLLIYSASYRYTGVPDRFSGSGSGTDFTLTISSLQPEDFATYYCQQHYSIPLTFGQGTKLEIKR
notes: Humanized derivative of murine 496G6, human IgG4 (Pro) format, kappa; also called anti-LAG3 antibody LAG3-4
Take B5: binding in the assay with Human LAG3 ECD-Fc [7] was put at a Kd of 0.1 nM.

B6: LAG3-2 (antibody, human IgG4 S228P, kappa, V domains shown)
VH: QVTLKESGPTLVKPTQTLTLTCSFSGFSLSTSDMGVGWIRQPPGKALEWLAHIWWDDVKRYNPALKSRLTITKDTSKNQVVLTMTNMDPVDTATYFCARIEDYGVSYYFDYWGQGTTVTVSS
VL: B5 VL with V3Q, I21F
notes: Humanized derivative of murine 496G6, human IgG4 (Pro) format, kappa; also called anti-LAG3 antibody LAG3-2
On to B6, for which the “IC50 (read off the curve)” value in the assay with Human LAG3 ECD-Fc [8] is around 0.7 nM. The same molecule gave a Kd with Human LAG3 ECD-Fc [7] of 0.09 nM.

B7: LAG3-3 (antibody, human IgG4 S228P, kappa, V domains shown)
VH: B5 VH with R19S, I39V, A42P, F96Y
VL: B5 VL with V3Q, Q100A
notes: Humanized derivative of murine 496G6, human IgG4 (Pro) format, kappa; also called anti-LAG3 antibody LAG3-3
For B7, the “IC50 (read off the curve)” value in the assay with Human LAG3 ECD-Fc [8] is around 0.8 nM. For the same molecule, in the assay with Human LAG3 ECD-Fc [7], the Kd is 0.12 nM.

B8: LAG3-5 (antibody, human IgG4 S228P, kappa, V domains shown)
VH: B6 VH with E101V
VL: B5 VL with V3Q, T20S, T85V
notes: Humanized derivative of murine 496G6, human IgG4 (Pro) format, kappa; also called anti-LAG3 antibody LAG3-5
B8: in the assay with Human LAG3 ECD-Fc [8], the “IC50 (read off the curve)” value was around 1 nM. For the same molecule, in the assay with Human LAG3 ECD-Fc [7], binding was put at a Kd of 0.07 nM.

B9: LAG3-1 (antibody, human IgG4 S228P, kappa, V domains shown)
VH: B5 VH with T94V
VL: B5 VL with V3Q, T20S
notes: Humanized derivative of murine 496G6, human IgG4 (Pro) format, kappa; also called representative anti-LAG3 antibody of the invention
Turning to B9, the “IC50 (read off the curve)” value with Human LAG3 ECD-Fc [8] was around 1 nM. The Kd in the assay with Human LAG3 ECD-Fc [7] worked out at 0.125 nM.
